Data reported in US20090029390A1 (KOREA INSTITUTE OF SCIENCE AND TECHNOLOGY, published 2009).
Ends that are not written are not given here. * marks the point of attachment. FITC = O=C1OC2(c3ccc(O)cc3Oc3cc(O)ccc32)c2ccc(NC(=S)*)cc21; Ahx = NCCCCCC(=O)O

Experiments:
[1] = target: T1, GST-p300 (truncated p300, amino acids 1-221) (Homo sapiens (Human), UniProt Q09472 300-520); experiment: fluorescence polarization, labeled peptide titrated with GST-p300
T1 construct: Expressed in E. coli BL21 from pGEX-4T-1 and eluted as a GST fusion; GST was not removed; not shown: glutathione S-transferase (GST) tag encoded by the pGEX-4T-1 vector

[2] = target: T2, GST-CBP (truncated human CBP, amino acids 1-450) (human, UniProt Q92793 1-450); experiment: fluorescence polarization, labeled peptide titrated with GST-CBP 0-3000 nM
T2 construct: Expressed in E. coli BL21 from pGEX-KG and eluted as a GST fusion; GST was not removed; not shown: glutathione S-transferase (GST) tag encoded by the pGEX-KG vector
Description: (§1) The binding affinity and features between the HIF-1α peptides and CBP or p300 proteins were analyzed by measuring the fluorescence polarization (FP) values that were changed by the formation of a protein-ligand complex through the interaction between the CBP or p300 proteins and the synthesized peptides that were manufactured by the method as described in above Example 1. The FP values were measured with a fluorescence spectrometer (Perkin-Elmer), which was set to have a slit width of 5 nm and a total integration time of 5 seconds. EBC Buffer (50 mM Tris and 120 mM NaCl; pH 8.0, 0.25% Nonidet P (NP)-40) was used for the binding reaction.
(§2) To compare interactions between the four peptides derived from different regions in HIF-1α C-TAD with CBP or p300, these fluorescein-labeled HIF-1α peptides were mixed with CBP proteins at varying concentrations from 0 to 3000 nM under the conditions of above Example 2-2, and then the FP (fluorescence polarization) values were measured (FIG. 2A).

[3] = target: T2, GST-CBP (truncated human CBP, amino …); experiment: fluorescence polarization, 100 nM labeled peptide titrated with GST-CBP
Description: as §1, §2

[4] = target: T1, GST-p300 (truncated p300, amino acids …); experiment: fluorescence polarization competition against F-HIF-1α(786-826) for GST-p300

T1 sequence (Q09472 300-520): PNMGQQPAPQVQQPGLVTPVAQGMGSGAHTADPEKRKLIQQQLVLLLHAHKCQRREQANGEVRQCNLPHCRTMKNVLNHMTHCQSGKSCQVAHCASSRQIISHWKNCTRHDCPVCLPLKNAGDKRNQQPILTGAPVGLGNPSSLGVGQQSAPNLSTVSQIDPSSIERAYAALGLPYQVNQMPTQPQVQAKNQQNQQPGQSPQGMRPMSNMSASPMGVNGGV
T2 sequence (Q92793 1-450): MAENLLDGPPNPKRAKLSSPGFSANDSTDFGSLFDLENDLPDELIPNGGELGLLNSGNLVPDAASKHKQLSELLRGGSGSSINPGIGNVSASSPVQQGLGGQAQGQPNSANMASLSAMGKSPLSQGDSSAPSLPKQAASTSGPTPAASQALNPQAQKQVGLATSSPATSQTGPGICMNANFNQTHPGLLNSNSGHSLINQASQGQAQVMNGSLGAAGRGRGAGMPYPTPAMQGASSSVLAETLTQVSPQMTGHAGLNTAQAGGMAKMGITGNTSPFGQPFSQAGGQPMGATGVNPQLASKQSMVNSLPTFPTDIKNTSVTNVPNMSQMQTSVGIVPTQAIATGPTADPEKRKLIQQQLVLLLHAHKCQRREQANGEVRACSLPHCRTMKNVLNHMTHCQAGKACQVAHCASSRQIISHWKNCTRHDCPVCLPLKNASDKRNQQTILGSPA

{FITC-Ahx}-DESGLPQLTSYDCEVNAPIQGSRNLLQGEELLRAL (Synthetic fluorescein-labeled peptide) [F-HIF-1α (788-822, SEQ ID NO: 6)]: binds [1]; binds [2].

B1: F-HIF-1α (776-826, SEQ ID NO: 3) (peptide)
peptide: {FITC-Ahx}-SDLACRLLGQSMDESGLPQLTSYDCEVNAPIQGSRNLLQGEELLRALDQVN
modifications: cysteine pairing not given here
notes: Synthetic fluorescein-labeled peptide from the C-TAD of human HIF-1α
Binder B1 has a Kd [1] of 157 nM and a Kd [2] of 196 nM.

{FITC-Ahx}-SDLACRLLGQSMDESGLPQLTSYDCEVNAPIQGSRNLLQ (cysteine pairing not given here, Synthetic fluorescein-labeled peptide) [F-HIF-1α (776-814, SEQ ID NO: 5)]: no binding [1]; no binding (tested: 3000 nM) [3].

B2: F-HIF-1α (786-826)[C800A] (peptide)
peptide: {FITC-Ahx}-SMDESGLPQLTSYDAEVNAPIQGSRNLLQGEELLRALDQVN
notes: Position 800 counts on full-length HIF-1α
B2: binds [1].

B3: T796D HIF-1α (786-826) peptide (peptide)
peptide: SMDESGLPQLDSYDCEVNAPIQGSRNLLQGEELLRALDQVN
notes: Unlabeled recombinant peptide with GST removed by thrombin; Position counts on full-length HIF-1α; also called T796D mutant peptide
B3: binds [4].

B4: N803A HIF-1α (786-826) peptide (peptide)
peptide: SMDESGLPQLTSYDCEVAAPIQGSRNLLQGEELLRALDQVN
notes: Unlabeled recombinant peptide with GST removed by thrombin; Position counts on full-length HIF-1α; also called N803A mutant peptide
B4: binds [4].

B5: F-HIF-1α (786-826, SEQ ID NO: 4) (peptide)
peptide: {FITC-Ahx}-SMDESGLPQLTSYDCEVNAPIQGSRNLLQGEELLRALDQVN
notes: Synthetic fluorescein-labeled peptide; also called untreated peptide
B5 showed a Kd [1] of 180 nM and a Kd [2] of 175 nM.
